Columns and labels:
[1] = biological target: T1, Human latent myostatin (human, UniProt O14793 25-266; O14793 267-375); test: SPR (BIACORE T200), 37 C, pH7.4, avidity condition (capture 185 RU), 1:1 fit; pH 7.4
T1 construct: Biotinylated in the ELISAs; also called human myostatin latent form
T1 sequence 1: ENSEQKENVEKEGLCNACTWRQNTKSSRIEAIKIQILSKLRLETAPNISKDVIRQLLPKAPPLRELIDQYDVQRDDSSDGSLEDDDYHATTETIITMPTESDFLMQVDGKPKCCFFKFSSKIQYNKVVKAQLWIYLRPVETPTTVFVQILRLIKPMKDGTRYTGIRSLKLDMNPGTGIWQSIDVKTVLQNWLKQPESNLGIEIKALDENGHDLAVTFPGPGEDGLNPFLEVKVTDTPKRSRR
T1 sequence 2: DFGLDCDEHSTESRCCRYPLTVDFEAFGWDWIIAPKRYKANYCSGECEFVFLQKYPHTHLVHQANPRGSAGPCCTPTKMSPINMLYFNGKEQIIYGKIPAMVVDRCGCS

[2] = biological target: T1, Human latent myostatin; test: SPR (BIACORE T200), 37 C, pH5.8, avidity condition (capture 185 RU), 1:1 fit; pH 5.8
Protocol: (§1) The kinetic parameters of anti-latent myostatin antibodies against human, cynomolgus monkey (cyno), and mouse latent myostatin were assessed at 37° C. at pH7.4 using a BIACORE® T200 instrument (GE Healthcare). ProA/G (Pierce) was immobilized onto all flow cells of a CM4 chip using amine coupling kit (GE Healthcare). Anti-latent myostatin antibody and analytes were prepared in ACES pH7.4 (20 mM ACES, 150 mM NaCl, 1.2 mM CaCl₂), 0.05% TWEEN® 20, 0.005% NaN₃). […] Then human, cyno, or mouse latent myostatin was injected at 3.125 to 50 nM prepared by two-fold serial dilution, followed by dissociation. The sensor surface was regenerated with 25 mM NaOH. Kinetic parameters were determined by processing and fitting the data to a 1:1 binding model using BIACORE® T200 Evaluation software, version 2.0 (GE Healthcare).
(§2) All experimental settings were the same as in Example 7, except that measurements were also performed in ACES pH5.8 buffer in addition to ACES pH7.4 condition. Some antibodies were only measured against human latent myostatin. Antibody capture level was aimed at 185 RU and 18.5 RU, for avidity and affinity assay, respectively. Kinetic parameters were determined using 1:1 Binding fitting using BIACORE® T200 Evaluation software, version 2.0 (GE Healthcare).

[3] = biological target: T2, Cynomolgus monkey latent myostatin (cynomolgus monkey, UniProt Q95J86 25-266; Q95J86 267-375); test: as above
T2 construct: signal 1-24; also called Cyno latent myostatin
T2 sequence 1: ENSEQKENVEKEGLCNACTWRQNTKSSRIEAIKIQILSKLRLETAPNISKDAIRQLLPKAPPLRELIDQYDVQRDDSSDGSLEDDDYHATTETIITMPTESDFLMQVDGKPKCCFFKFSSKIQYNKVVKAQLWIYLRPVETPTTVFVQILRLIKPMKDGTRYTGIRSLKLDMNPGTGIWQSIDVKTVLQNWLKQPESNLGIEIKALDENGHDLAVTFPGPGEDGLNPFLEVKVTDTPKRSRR
T2 sequence 2: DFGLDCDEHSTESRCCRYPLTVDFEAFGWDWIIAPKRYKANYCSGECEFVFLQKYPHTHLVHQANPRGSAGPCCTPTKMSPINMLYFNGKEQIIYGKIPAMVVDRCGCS
Protocol: as §1, §2

[4] = biological target: T3, Mouse latent myostatin (mouse, UniProt O08689 26-267; O08689 268-376); test: as above
T3 construct: signal 1-24
T3 sequence 1: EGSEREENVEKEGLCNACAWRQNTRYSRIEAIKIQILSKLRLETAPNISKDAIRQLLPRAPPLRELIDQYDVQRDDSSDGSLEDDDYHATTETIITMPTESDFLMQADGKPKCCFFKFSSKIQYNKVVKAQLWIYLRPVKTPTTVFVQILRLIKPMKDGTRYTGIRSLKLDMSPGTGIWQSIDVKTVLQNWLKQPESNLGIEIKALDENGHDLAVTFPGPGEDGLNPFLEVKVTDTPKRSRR
T3 sequence 2: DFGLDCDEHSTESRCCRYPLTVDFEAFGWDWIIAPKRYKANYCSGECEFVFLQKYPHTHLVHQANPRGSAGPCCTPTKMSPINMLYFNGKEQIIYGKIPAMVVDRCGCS
Protocol: as §1, §2

[5] = biological target: T1, Human latent myostatin; test: SPR (BIACORE), additional dissociation phase at pH5.8 after dissociation at pH7.4, Scrubber 2.0 fit
Protocol: Each amino acid in the CDRs was individually mutated to histidine using In-Fusion HD Cloning Kit (Clontech Inc, or Takara Bio company) according to the manufacturer's instructions. […] All histidine-substituted variants were evaluated by a modified BIACORE® assay as compared to that described above. Briefly, an additional dissociation phase at pH5.8 was integrated into the BIACORE® assay immediately after the dissociation phase at pH7.4. This is to assess the pH-dependent dissociation between antibody (Ab) and antigen (Ag) from the complexes formed at pH7.4 as opposed to the corresponding dissociation at pH5.8. The dissociation rate at pH5.8 buffer was determined by processing and fitting data using the Scrubber 2.0 (BioLogic Software) curve fitting software.
Antibodies with a combination of these mutations in the CDRs were then generated.

[6] = biological target: T1, Human latent myostatin; test: SPR (BIACORE T200), 37 C, pH5.8, 1:1 fit; title prints avidity, by the text the affinity condition (capture 18.5 RU); pH 5.8
Protocol: as §1, §2

[7] = biological target: T2, Cynomolgus monkey latent myostatin; test: as above
Protocol: as §1, §2

[8] = biological target: T3, Mouse latent myostatin; test: as above
Protocol: as §1, §2

Kd [1]: 0.075 nM
koff [1]: 9.52e-05 s⁻¹
kon [1]: 1.27e+06 M⁻¹ s⁻¹
Kd [2]: 0.0797 nM
koff [2]: 0.000128 s⁻¹
kon [2]: 1.6e+06 M⁻¹ s⁻¹
Kd [3]: 8.83 pM
koff [3]: 1.58e-05 s⁻¹
kon [3]: 1.79e+06 M⁻¹ s⁻¹
Kd [4]: 8.7 pM
koff [4]: 2.02e-05 s⁻¹
kon [4]: 2.32e+06 M⁻¹ s⁻¹
koff [5]: 2.92e-05 s⁻¹
Kd [6]: 0.215 nM
koff [6]: 0.000235 s⁻¹
kon [6]: 1.09e+06 M⁻¹ s⁻¹
Kd [7]: 0.139 nM
koff [7]: 0.000196 s⁻¹
kon [7]: 1.41e+06 M⁻¹ s⁻¹
Kd [8]: 0.0438 nM
koff [8]: 7.08e-05 s⁻¹
kon [8]: 1.62e+06 M⁻¹ s⁻¹
B1: MS_M103205H000-SG1/M103202LO00-SK1 (antibody, human IgG1, kappa, V domains shown)
VH: QVTLKESGPVLVKPTETLTLTCTVSGIDLSSYDISWVRQAPGKGLEWVGIISYAGSTYYASWAKGRLTISKDTSKNQVVLTMTNMDPVDTATYYCARGVPAYSTGGDLWGQGTLVTVSS
VL: DIVMTQSPATLSLSPGERATLSCQSSQSVYDNNWLSWFQQKPGQPPKLLIYWASTLASGVPSRFSGSGSGTDFTLTISSLQPEDAATYYCAGGYGGGLYAFGQGTKVEIKR
notes: Humanized MST1032, not pH-dependent; also called MS1032LO00-SG1; Ab001

— patent US20200317768A1 (published 2020)
